What was measured:
[1] = molecular target: N-terminally NLuc-tagged hACKR3 (human) (UniProt P25106)
[2] = molecular target: hACKR3-SmBiT (HA-tagged ACKR3 C-terminally fused to SmBiT) (human) (UniProt P25106)
CCR3 = CCR3 (Homo sapiens, UniProt P51677); experiment: NanoBiT β-arrestin2 recruitment to CCR3, concentration-response; format: cell-based; conditions: HEK293T, NanoBiT
Procedure: The pharmacological modulation of all chemokine receptors by VUF16840 was performed according to an established method.[8]^,[23]^,[39] Briefly, β-arrestin2 recruitment to chemokine receptors in response to 1 μM VUF16840 or positive control chemokines was monitored by NanoLuc complementation assay (NanoBiT, Promega). Four hours after transfection, cells were harvested, incubated for 25 minutes at 37 °C with furimazine and distributed into a white 96-well plates (1 × 10^5 cells per well). β-Arrestin2 recruitment was then detected for 20 minutes upon treatment with 1 μM VUF16840 (or increasing concentrations ligand for experiments with CC chemokine receptor [CCR3]) using the Mithras LB940 luminometer (Berthold Technologies). To evaluate the antagonist properties of VUF16840, full agonists of each receptor were added after the 20-minute incubation with VUF16840. Signal from wells treated with full agonist only was defined as 100% activity and signals from wells treated with no agonist were used to set 0% activity.
Supplemental Figure 5 – Modulation of CCR3 receptor by VUF16840. Recruitment of β-arrestin2 towards CCR3 chemokine receptor was measured using a NLuc complementation assay in HEK293T cells. The concentration-dependent activation of the CCR3 was determined for VUF16840 and the endogenous agonist CCL13. All values depict the mean ± SD of ≥ 3 experiments.

CXCL12 levels [3] = tested on: CXCL12 levels; design: method as in PMID 33595155, PMID 38819698; conditions: mice, in vivo application; cited from earlier work
CXCL12 levels [4] = conditions: humans; cited from earlier work
[5] = molecular target: hCCR3 C-terminally tagged with SmBiT (chemokine receptor screen) (human) (UniProt P51677)
hCCR3 C-terminally tagged with SmBiT (chemokine receptor screen) (human), sequence (P51677 whole entry): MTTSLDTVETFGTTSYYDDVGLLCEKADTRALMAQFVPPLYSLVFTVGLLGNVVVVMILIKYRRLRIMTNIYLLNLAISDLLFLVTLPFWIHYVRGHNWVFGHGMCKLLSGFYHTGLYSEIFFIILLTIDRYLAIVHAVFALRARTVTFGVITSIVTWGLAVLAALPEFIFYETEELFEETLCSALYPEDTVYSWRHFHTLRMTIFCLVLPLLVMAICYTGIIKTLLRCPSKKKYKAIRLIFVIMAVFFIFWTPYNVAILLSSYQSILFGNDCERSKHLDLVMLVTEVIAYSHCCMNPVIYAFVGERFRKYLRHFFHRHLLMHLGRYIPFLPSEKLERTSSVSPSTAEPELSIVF

ACKR3 [6] = molecular target: T1, ACKR3 (Homo sapiens, UniProt P25106); experiment: BRET β-arrestin1 recruitment to ACKR3 in HEK293T cells; format: cell-based; conditions: * VUF16840 as inverse agonist
T1 construct: expressed in transfected cells; host or cells: HEK293T
T1 sequence (P25106 whole entry): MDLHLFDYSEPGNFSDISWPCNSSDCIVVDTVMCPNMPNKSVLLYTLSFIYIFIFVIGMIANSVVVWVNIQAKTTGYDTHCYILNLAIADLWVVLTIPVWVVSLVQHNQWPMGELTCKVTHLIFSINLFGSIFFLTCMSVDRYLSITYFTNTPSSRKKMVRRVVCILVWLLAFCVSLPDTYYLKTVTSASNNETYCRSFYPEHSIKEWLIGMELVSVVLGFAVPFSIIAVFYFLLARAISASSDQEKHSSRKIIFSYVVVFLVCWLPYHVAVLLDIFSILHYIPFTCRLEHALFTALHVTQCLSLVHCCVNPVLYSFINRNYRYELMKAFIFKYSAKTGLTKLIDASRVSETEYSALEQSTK
Procedure: (§1) For bioluminescence resonance energy transfer (BRET) experiments, several BRET acceptor constructs were used that consist of the pcDEF3 vector with either GRK2 (NCBI: NM_174710.2), β-arrestin1 (NCBI: NM_174243.3), or β-arrestin2 (NCBI: XM_005220181.4) fused at the C-terminus with a SpeI/NotI linker to mVenus (NCBI: KP666136.1), as previously described.[34]
(§2) For 1·10^6 HEK293T cells, a transfection mix consisting of 2 μg plasmid DNA, 12 μg linear PEI in a total volume of 200 μL 150 mM NaCl was made and thoroughly vortexed. The transfection mix was incubated for 15 minutes and consequently added to a cell suspension with a final concentration of 3·10^5 cells/mL. For functional studies this cell suspension was immediately transferred to a poly-L-lysine-coated white 96-well plate, with 3·10^4 cells per well. […] For BRET-based membrane localization experiments, the 2 μg plasmid DNA consisted of ACKR3-NL (0.05 μg), mVenus-CAAX (0.25 μg), and pcDEF3 vector DNA without insert (1.7 μg).
(§3) Mean pIC50 values were determined by averaging fitted values from individual experiments. Graphs depict the pooled data of all experiments. Similarly, sigmoidal, ligand-induced concentration-dependent activation or inhibition of the proximity between ACKR3 and the protein of interest was analyzed using GraphPad Prism 8, by fitting a 3-parameter concentration-response model to the data, to determine pEC50/pIC50 values. Mean pEC50 values and pIC50 values were determined by averaging fitted values from individual experiments. Graphs depict the pooled data of all experiments, for which values are normalized, per experiment, to the fold difference compared with basal signal.
HEK293T cells were stimulated with increasing concentrations of VUF15485 or VUF16840 only (A–D), or increasing concentrations of VUF16840 in the presence of 100 nM VUF15485 (E–H). The resulting proximity between ACKR3 and β-arrestin1 (A, E), GRK2 (B, F), or Rab5a (C, G) was determined by bioluminescence resonance energy transfer. Furthermore, an interaction between clathrin A and β-arrestin2 was measured by NLuc complementation, as was determined by quantifying the relative light units (D, H). Depicted data is normalized as fold-basal and represents the mean ± SD of N experiments with triplicate measurements per experiment. N is specified in Supplemental Table 1.

ACKR3 [7] = molecular target: T1, ACKR3; experiment: BRET β-arrestin2 recruitment to hACKR3 in HEK293T cells; format: cell-based; conditions: * VUF16840 as inverse agonist; mean ± SD (N)
Procedure: as §1, §2, §3

CCR3, sequence (P51677 whole entry): as the sequence (P51677 whole entry) above
CCR3, sequence (P32121 whole entry partner): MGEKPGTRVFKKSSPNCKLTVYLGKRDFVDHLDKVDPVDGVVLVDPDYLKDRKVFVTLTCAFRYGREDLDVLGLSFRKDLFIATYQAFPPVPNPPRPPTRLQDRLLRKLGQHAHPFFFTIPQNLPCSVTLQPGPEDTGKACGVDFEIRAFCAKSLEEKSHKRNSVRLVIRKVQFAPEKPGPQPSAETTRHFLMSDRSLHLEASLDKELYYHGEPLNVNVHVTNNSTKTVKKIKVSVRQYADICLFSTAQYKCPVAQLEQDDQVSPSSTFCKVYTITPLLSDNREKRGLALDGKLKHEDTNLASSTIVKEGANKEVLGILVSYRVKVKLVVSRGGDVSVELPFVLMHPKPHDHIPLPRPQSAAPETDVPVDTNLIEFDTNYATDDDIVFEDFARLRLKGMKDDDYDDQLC
Human recombinant CXCL12, sequence (P48061 22-93): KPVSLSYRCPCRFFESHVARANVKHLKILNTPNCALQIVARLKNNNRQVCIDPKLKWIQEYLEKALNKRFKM
CCL13, sequence (Q99616 17-98): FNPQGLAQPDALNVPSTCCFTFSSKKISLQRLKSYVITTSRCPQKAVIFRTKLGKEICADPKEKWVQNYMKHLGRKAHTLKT
N-terminally NLuc-tagged hACKR3 (human), sequence (P25106 whole entry, the tested form may be a part): as the sequence (P25106 whole entry) above
hACKR3-SmBiT (HA-tagged ACKR3 C-terminally fused to SmBiT) (human), sequence (P25106 whole entry, the tested form may be a part): as the sequence (P25106 whole entry) above

Human recombinant CXCL12 (from UniProt P48061 22-93) (ligand)
bystander BRET between ACKR3-NLuc (C-terminal NLuc, not the construct of m2) and plasma membrane mVenus-CAAX in HEK293T cells (receptor internalization), pIC50 of CXCL12 [1]: 9.1 pIC50 | β-arrestin2 recruitment to hACKR3 (NanoBiT, HEK293T, concentration-response after 30 minutes), EC50 of CXCL12 [2]: 1.6 nM

CCL13: endogenous ligand (agonist) of CCR3
pEC50, activation of CCR3 (β-arrestin2 recruitment) (CCR3): 7.2 ± 0.1 | EC50 (CCR3; read-out: EC50, activation of CCR3 (β-arrestin2 recruitment)): 63 nM

O=C(N[C@H]1CCN(CC2CC2)C[C@@H]1C(=O)NC1(c2ncccn2)CC1)c1cc(-c2ccc(F)cc2F)on1 [ACT1004-1239]
plasma and brain CXCL12 levels (CXCL12 levels [3]): increase | plasma CXCL12 levels (CXCL12 levels [4]): increase

CCL13 (from UniProt Q99616 17-98) (ligand)
β-arrestin2 recruitment to CCR3 (NanoBiT, HEK293T), EC50 of CCL13 [5]: 63 nM

CXCL11: human recombinant chemokine, endogenous agonist of ACKR3
β-arrestin1 BRET pEC50 (ACKR3 [6]): 8.1 ± 0.1 (6) | β-arrestin2 BRET pEC50 (ACKR3 [7]): 8.2 ± 0.1 (3)

Source: PMC12799421, “Inhibition of constitutive activity of the atypical chemokine receptor 3 by the small-molecule inverse agonist VUF16840” (Molecular Pharmacology, 2025)
